We go through 2 substances from paper PMC11343739.

The nature of data set [1]: WB of endogenous EP300, 786-O and Caki-1. Conditions: glycan lost; control: untreated.
Data set [2] in a line: nuclear/cytoplasmic fractionation WB and IF. The conditions noted are these: glycan lost; control: Flag-EP300-WT.
A short description of data set [3]: anti-Flag WB of cell fractions. The conditions noted are these: glycan lost; control: Flag-EP300-WT.
Data set [4] is described as follows: CHX chase, WB, 786-O cells. Conditions: glycan lost; control: Flag-EP300-WT.

EP300: OSMI-1: the expression_or_secretion entry in data set [1] is “decreases”.

With EP300: S900A, the localisation_or_trafficking result in data set [2] is “no change”. Further, the expression_or_secretion result in data set [3] is “changes”. Also, the degradation_or_half_life entry in data set [4] was “decreases”.
